According to the DeepSol protein solubility set:

Test: soluble on expression in E. coli; label from the status in PepcDB or PDB records

Row | Sequence | soluble on expression in E. coli
1 | MQKSDEVTEKFKRYCNQLEKYGQTENVHSPVMAMLRRKGRKQLIEIMKRDGDCTSSINKLWIVGYYHPFQFFIRDKEKNMAIAVLLTMFCGELQEMLSLPDDKYPALWNMYIGDFHRYMPDEEIQKCLAVGYYSRAIDLDPNQGRAFHVLAGLRADLNVAQKLRLMILGQLADAPYKKGTELLEYLKFPQKESTDKLMVDFVIWALNEKSKRMDYQMTGIKIVNEFKAEIEQKLEFDWSLIMSTCRLASKLAMKKFGFQQFYNCFDTISTLYITIYSRTISSKCLLAEAISWISDSAEILGHLDEQKNEPHFQKLSVFAKTKWNELNDLVMNHINSVFTSMSLTINPSISMTSFLLNGPISEPNVEFLSQLINYLVSVEFPPMEIIHDREESGPLLRRINQSEQKRLDIQIKTQNDEVNREDWRPVYVLMDYDVIVDKIRIALKIWDIDDFICILPSTVLDELDYQKTKNRAVRPVIRALMELQAEGKIVLKKCDNERSCAEQLVQSARRSAEDHKHIVAFLCKNPSEQKEMEGVTFYDIDQFYMKYLE | not soluble
2 | MSLITHISPLGSMDMLSQLEVDMLKRTASSDLYQLFRNCSLAVLNSGSLTDNSKELLSRFENFDINVLRRERGVKLELINPPEEAFVDGRIIRALQANLFAVLRDILFVYGQIHNTVRFPNLNLDNSVHITNLVFSILRNARALHVGEAPNMVVCWGGHSINENEYLYARRVGNQLGLRELNICTGCGPGAMEAPMKGAAVGHAQQRYKDSRFIGMTEPSIIAAEPPNPLVNELIIMPDIEKRLEAFVRIAHGIIIFPGGVGTAEELLYLLGILMNPANKDQVLPLILTGPKESADYFRVLDEFVVHTLGENARRHYRIIIDDAAEVARQMKKSMPLVKENRRDTGDAYSFNWSMRIAPDLQMPFEPSHENMANLKLYPDQPVEVLAADLRRAFSGIVAGNVKEVGIRAIEEFGPYKINGDKEIMRRMDDLLQGFVAQHRMKLPGSAYIPCYEICTEGHHHHHH | soluble
3 | MYNETPIKRRPSTRIYVGNVPIGDGAPIAVQSMTNTKTTDVEATVAQIRALEKVGADIVRVSVPTMDAAEAFKLIKQSVSVPLVADIHFDYRIALKVAEYGVDCLRINPGNIGNEERIRSVVECARDKNIPIRIGVNGGSLEKDLMDKYKEPTPEALLESAMRHVDILDRLNFDQFKVSVKASDVFLAVESYRLLAKQIRQPLHLGITEAGGARAGAVKSAVGLGMLLAEGIGDTLRISLAADPVEEIKVGFDILKSLRIRSRGINFIACPSCSRQEFDVISTVNELERRLEDVTTAMDVSIIGCVVNGPGEALVSHIGLTGGHRKSGYYDEGERQKERFDNDNLVDSLEAKIRAKASQMANRIQVKDTTEAAALEHHHHHH | not soluble
4 | LADTSPMDKKGRKAEDALVVNVRANLYWWEFEYPDYGIITSQELIVPTDQRVYFNLKASDVKHSFWIPSVGGKLDTNTDNENKFFLTFDSKRSKEAGDMFFGKCAELCGPSHALMDFKVKTMSAKEFQGWTKEMKNYKSTAESDLAKQGEELFKEKNCLSCHAVEPNDKRAEAARTAPNLATFGERTKVAGVKEANKENVKAWLKDPDSIKPGNKMTGTYPKLSDSETNALYEYLKGLKAE | not soluble
5 | MGHHHHHHSHMVTSITATANQMPANPPKTVFEFSTEINRTIEKDVMQAVVYSRKTGKQLPDLKKSVSLHLNKVIDNAKKQSDIELEANGVRNFVNYDNNNKPDGWVAEGRVYLKSKNFEALAKVLEQLDSEVAISDIYFSVSPEKAKTLENEMILDVLKQFKHKAEVVQAGLNAKNYVLTDVKLDTPNGNLDQFEVRSFAMMARSVRPASAKEELSLEPGKATLSARASGKVQFE | soluble
6 | GSPEKILAQIIQEHREGLDWQEAATRASLSLEETRKLLQSMAAAGQVTLLRVENDLYAISTERYQAWWQAVTRALEEFHSRYPLRPGLAREELRSRYFSRLPARVYQALLEEWSREGRLQLAANTVALAGFTPSFSETQKKLLKDLEDKYRVSRWQPPWVKEVAGSFNLDPSELEELLHYLVREGVLVKINDEFYWHRQALGEAREVIKNLASTGPFGLAEARDALGSSRKYVLPLLEYLDQVKFTRRVGDKRVVVGN | soluble
7 | MGSDKIHHHHHHMLNNYMSILSLNENDNDIKSLTKARPLASIPIAGRYRIIDFILSNLVNSGVKNIGILTQCKSRSLLDHLGSGKPWDLDRKLNGLFIFNFSGITSTLSDIEMLKSNMEYLYRSTQEKVILSSSAVICNIDFQRAAEFHEKSGKDITLIYKRTNNGKRKFLNCSVLNMDKNNNVISIGKNTGLDDVQNISLGMFIMNKKLLINILNNCIRTGFSLSLKQCIRKHMNNFTVNAYEFNGYAEYIDSVKSYYKVNMDMLNLDINREVFFKNGLIYTKVKDEAPTKYFNDSEVCNSLIANGSLIHGQIENSIIGRRVTISKGARIKNCVIMQNCTIKENVDLTNVIVDKNVIIDENTVLKGGKEFPLVIEKKSIYSEV | not soluble
8 | MGSDKIHHHHHHMQTLLITSSFDKTCDYIQVKFPELNYFRLNVDKFSSYKLEIIADGFRIECGEHRLFSSECSSIYFRKPVFENLDGNIDVQYHNFVHKESYSLIEGLIESFSGRCLSKPSVMRRANNKVFQIMLAKSVGFLMPQLSITNDEIVLKKWAKDDAIVKPLAIGTVEYKTKKEFVQTNRLSSEKDTSALKYAPVYLQKFVDKDYEVRVTAINGQFFPARIDASNPVDWRKPNTETLFTKCVLPENIEQQCRTYMYKSSMDFGCFDFLVKDNVWYFLEMNANGQWGWLDNLFEGKISDAIATYLKSGLKNAHC | not soluble
9 | MGSSHHHHHHSSGRENLYFQGMSVVFGVDIVGGSVHGKIKPKYAVVVLENGNEFEKIVSRSKLFRMVKKEKPDIIAVDNIYEVFKDKKDLIFFLKNAPSKTKLVQVTDRENSLPSLSKRFGLNINIRNPVDEARACAYLASFGMGSEISVFTDKTKITVSRNRSLGKGGWRQKKYGRKIHNAVREVYKEIRDRIVEAGFEFVEEVRKGYGGISRGVILVSAPRDRVPINSFKTRDVQVAVEAVEKEKIEFIPLRRTLRYLIVGIDPGATTAIAALDLRGELVDMKSRKGWSPAEVIEFISSLGKPVVVSTDKSSPPEFVSKIRASFNAVLYTPKEDMSVEKKRILTSKYSTSNDHERDALAAAIDAFNSYKSKLINVEKRLPAGIDSDRIKAEIIRGTPLKEVLSVTREESREEKVQAETVSREEILKRDRVIERLKEENRILSRKIKEMKDEIEKLRARVASISREEHEKIRKDTYVQNLEREIFDLRKKLKEKDEEIEQLKERIALLRKMKMLEFQGWKEVKVLRKFTKEEIERAEREMGISEGDIILIVDSSGGSASLAEMLCEKKVRAIIYGSEMSHLAAETFEKYNIPRISIDEVEIMMGDDIAVVNAEEFERVYAEKLEETKRRKIDFLEKLVEDYRRRRVV | soluble
10 | FISDLHLEAERPDITRAFLSFLDERARRAEALYILGDFFEAWIGDDGMDAFQRSIAQSLRQVADGGTRIYLMHGNRDFLIGKAFCREAGCTLLPDPSVIDLYGEPVLLMHGDSLCTRDEAYMRLRRWLRNPLTLWVLRHLPLATRHKLARKLRKESRAQTRMKAVDIIDVTPEEVPRVMRGHGVRTLIHGHTHRPAEHPLDIDGQPARRIVLGDWDRQGWALEIDANGHR | not soluble
11 | MGSDKIHHHHHHMSNKPFYYQDPFPLSKDDTEYRLLSSDFVSVAQFEGQDILKVEPAALTLLAQQAFHDASFMLRPAHQQQVADILHDPEASENDKYVALQFLRNSEISAKGILPTCQDTGTAIIVGKKGQNVWTGGNDAEALSQGVYNTFIEDNLRYSQNAALDMYQEVNTGTNLPAQIDLYSTEGEDYKFLFVTKGGGSANKTYLYQETKALLTPGKLKSFLIEKMRSLGTAACPPYHIAFAIGGTSAETTLKTVKLASTKYYDELPTEGNEHGQAFRDVALEQEILEAARDLGLGAQFGGKYFAHDVRIIRLPRHGASCPVGMGVSCSADRNIKGKINRKGVWLEQLEQNPGKYIPEHLRETGEGDAVKIDLNRPMTEILKTLSQYPVSTRLSLTGTIIVGRDIAHAKLKERLDNGEGLPQYIKDHPIYYAGPAKTPEGYPSGSLGPTTAGRMDSYVDLLQANGGSMVMLAKGNRSQQVTDACHKHGGFYLGSIGGPAAILAQNSIKSLTCVEYPELGMEAIWKIEVEDFPAFILVDDKGNDFFQVIQSAKCVKCG | not soluble
12 | MGSDKIHHHHHHMRKLKKYKPTAFIADGSYYDEDAADYAVAFIEALSHTKGLWAGKPFELIDWQEQIIRDLFGILKPDGYRQFNTAYVEIPKKMGKSELAAAIALLLTCGDGEERAEVYGCAADRQQASIVFEVAADMVRMCPALNKRVKLLASTKRLVYLPTNSFYQVLSAEAYSKHGFNIHGVVFDELHTQPNRKLFDVMTKGSGDARTQPLYFLITTAGTDTQSICYETHQKAVDIIEGRKYDPTFYPVIYGAKEEDDWTDPKVWKKANPSLGITVGIDKVRAACESAKQNPAEENSFRQLRLNQWVKQSVRWMPMAKWDACAFPVIPESLEGRVCYGGLDLSSTTDITAFVLVFPPEDETDKYIVLPYFWMPEDNIDLRVRRDHVQYDLWEKQGYILTTEGNVVHYGYIERFIEELGEKYNIREIAFDRWGAVQMVQNLEGAGFTVVPFGQGFKDMSPPTKELMKLTLEERIAHGGHPVLRWMMDNIFIKTDPAGNVKPDKEKSTEKIDGAVATIMALDRAIRCGSGNSGDSVYDERGLIVF | not soluble
13 | LPTSNPAQELEARQLERTTRDDLINGNSASCADVIFIYARGSTEAGNLGTLGPSIASNLESAFGKDGVWIQGVGGAYRATLGDNALPRGTSSAAIREMLGLFQQANTKCPDATLIAGGYSQGAALAAASIEDLDSAIRDKIAGTVLFGYTKNLQNRGRIPNYPADRTKVFCNTGDLVCTGSLIVAAPHLAYGPDARGPAPEFLIEKVRAVRGSA | soluble
14 | MAGSATVEKRLDFGLLGPLQMTIDGTPVPSGTPKQRAVLAMLVINRNRPVGVDALITALWEEWPPSGARASIHSYVSNLRKLLGGAGIDPRVVLAAAPPGYRLSIPDNTCDLGRFVAEKTAGVHAAAAGRFEQASRHLSAALREWRGPVLDDLRDFQFVEPFATALVEDKVLAHTAKAEAEIACGRASAVIAELEALTFEHPYREPLWTQLITAYYLSDRQSDALGAYRRVKTTLADDLGIDPGPTLRALNERILRQQPLDAKKSAKTTAAGTVTVLDQRTMASGQQAVAYLHDIASGRGYPLQAAATRIGRLHDNDIVLDSANVSRHHAVIVDTGTNYVINDLRSSNGVHVQHERIRSAVTLNDGDHIRICDHEFTFQISAGTHGGT | soluble
15 | SYEQLKGEWNRKSPNLSKCGEELGRLKLVLLELNFLPTTGTKLTKQQLILARDILEIGAQWSILRKDIPSFERYMAQLKCYYFDYKEQLPESAYMHQLLGLNLLFLLSQNRVAEFHTELERLPAKDIQTNVYIKHPVSLEQYLMEGSYNKVFLAKGNIPAESYTFFIDILLDTIRDEIAGCIEKAYEKILFTEATRILFFNTPKKMTDYAKKRGWVLGPNNYYSFASQQQKPEDTTIPSTELAKQVIEYARQLEMIV | soluble
16 | MGSDKIHHHHHHMNYTKMRGVEEKLVESIVRRTIDTAEARLRKYVFTPTGEKRPERKPLAKLKEEIESFLRTRENKLLVLYGLRGVGKTTMLAQIYFKLLPQIPRERLVYVSLDKLRPLGISLNYFVQAYERLLGERIEEFSQPTFLFIDEAHYDENFGITVKDLYDSASNLMIVVTGSSSLPLKLDPDLMRRAKKLRVPPLTFTEYLLLKRGLQIPEELSAALKHAFLNCDFSGVEEKLDGVLLKFTEKDVEDYLIQGSLPIYLTSKNPLEDAYEILRKIVEVDLVLEGLSETTREKALGLLLLLASGESLAYDELSSTLGLAKGTVEKLIEKLEDLEVIFPVRAYGSLGKVARKTPKYKFLAPMLRSAVLYEFGLFERDSKTLGMLLEDAVALYLHLLAKEKKLGLHYDAQKGGADFILKGQSRGIVIEVGWGKKGLRQVIKTMKKTGLNCGVVIYNGPLKKKGEVWFVPRELFLLML | not soluble
17 | MKFFIAFACLLAVALANEDANVLRAEQQVNVDGFAYAVELDNSVNVQQKGDLNGEEWVVKGSQSWTSPENVPVSIQYIADANGYQVVSANPPLPTPPPIPEAIQRSLEYIAAHPPSQLEHHHHHH | not soluble
